Results taken from the supplement of paper PMC9112550, “Optimization of the antimicrobial peptide Bac7 by deep mutational scanning” (BMC Biology, 2022).

System: Escherichia coli TOP10
Assay: shrunken log2 fold change of peptide-encoding DNA abundance (4.5 h post-induction vs induction); higher = less antimicrobial activity (less host growth inhibition)
Settings: time post-induction: 4.5 h; library: site-saturation at positions 5, 18, 19, 20
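Also: peptides expressed intracellularly from a pBAD plasmid library in pooled LB shake-flask culture, induced with 0.3% L-arabinose, DNA abundance read by NGS, three biological replicates, DESeq2 with apeglm shrinkage.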

Sequence: RRIRCRPPRLPRPRPRPRHSPRP
- shrunken log2 fold change: -0.102

Sequence: RRIRMRPPRLPRPRPRPNNKPRP
- shrunken log2 fold change: -0.183

Sequence: RRIRIRPPRLPRPRPRPLMVPRP
- shrunken log2 fold change: -0.942

Sequence: RRIRDRPPRLPRPRPRPLNVPRP
- shrunken log2 fold change: -0.029

Sequence: RRIRSRPPRLPRPRPRPKDRPRP
- shrunken log2 fold change: 0.201

Sequence: RRIRGRPPRLPRPRPRPSTGPRP
- shrunken log2 fold change: -0.0729

Sequence: RRIRKRPPRLPRPRPRPYGIPRP
- shrunken log2 fold change: -0.329

Sequence: RRIRFRPPRLPRPRPRPNNHPRP
- shrunken log2 fold change: -0.571

Sequence: RRIRFRPPRLPRPRPRPIKAPRP
- shrunken log2 fold change: -0.128

Sequence: RRIRIRPPRLPRPRPRPEAGPRP
- shrunken log2 fold change: -0.17

Sequence: RRIRMRPPRLPRPRPRPWFHPRP
- shrunken log2 fold change: -0.121

Sequence: RRIRWRPPRLPRPRPRPCQWPRP
- shrunken log2 fold change: 0.0226

Sequence: RRIRFRPPRLPRPRPRPHPKPRP
- shrunken log2 fold change: 0.827

Sequence: RRIRYRPPRLPRPRPRPTWRPRP
- shrunken log2 fold change: 0.104

Sequence: RRIRTRPPRLPRPRPRPTGEPRP
- shrunken log2 fold change: 0.178

Sequence: RRIRCRPPRLPRPRPRPTTNPRP
- shrunken log2 fold change: 0.0115

Sequence: RRIRLRPPRLPRPRPRPRYRPRP
- shrunken log2 fold change: -0.374

Sequence: RRIRWRPPRLPRPRPRPAAIPRP
- shrunken log2 fold change: 0.302

Sequence: RRIRWRPPRLPRPRPRPRWDPRP
- shrunken log2 fold change: 0.0641

Sequence: RRIRQRPPRLPRPRPRPEGCPRP
- shrunken log2 fold change: -0.0749

Sequence: RRIRHRPPRLPRPRPRPCLCPRP
- shrunken log2 fold change: -0.268

Sequence: RRIRQRPPRLPRPRPRPWFSPRP
- shrunken log2 fold change: -0.102

Sequence: RRIRSRPPRLPRPRPRPGHHPRP
- shrunken log2 fold change: -0.0988

Sequence: RRIRFRPPRLPRPRPRPGTSPRP
- shrunken log2 fold change: -0.0716

Sequence: RRIRNRPPRLPRPRPRPPMFPRP
- shrunken log2 fold change: -0.0155

Sequence: RRIRFRPPRLPRPRPRPWHVPRP
- shrunken log2 fold change: -0.0433

Sequence: RRIRGRPPRLPRPRPRPVEEPRP
- shrunken log2 fold change: 0.843

Sequence: RRIRCRPPRLPRPRPRPAGPPRP
- shrunken log2 fold change: 0.116

Sequence: RRIRNRPPRLPRPRPRPHTHPRP
- shrunken log2 fold change: -0.438

Sequence: RRIRYRPPRLPRPRPRPDYSPRP
- shrunken log2 fold change: -0.245

Sequence: RRIRMRPPRLPRPRPRPHNPPRP
- shrunken log2 fold change: -0.329

Sequence: RRIRYRPPRLPRPRPRPPTLPRP
- shrunken log2 fold change: -0.274

Sequence: RRIRHRPPRLPRPRPRPALGPRP
- shrunken log2 fold change: -0.0558

Sequence: RRIRARPPRLPRPRPRPMRPPRP
- shrunken log2 fold change: 0.342

Sequence: RRIRHRPPRLPRPRPRPGNDPRP
- shrunken log2 fold change: -0.583

Sequence: RRIRERPPRLPRPRPRPQAAPRP
- shrunken log2 fold change: -0.194

Sequence: RRIRCRPPRLPRPRPRPASDPRP
- shrunken log2 fold change: -0.0092

Sequence: RRIRERPPRLPRPRPRPMQWPRP
- shrunken log2 fold change: 0.00938

Sequence: RRIRTRPPRLPRPRPRPELQPRP
- shrunken log2 fold change: -0.0178

Sequence: RRIRARPPRLPRPRPRPHMVPRP
- shrunken log2 fold change: -0.069

Sequence: RRIRGRPPRLPRPRPRPGQAPRP
- shrunken log2 fold change: 0.353

Sequence: RRIRQRPPRLPRPRPRPQPCPRP
- shrunken log2 fold change: 0.149

Sequence: RRIRHRPPRLPRPRPRPPMYPRP
- shrunken log2 fold change: -0.739

Sequence: RRIRKRPPRLPRPRPRPVFKPRP
- shrunken log2 fold change: 0.288

Sequence: RRIRDRPPRLPRPRPRPIAGPRP
- shrunken log2 fold change: -0.0166

Sequence: RRIRVRPPRLPRPRPRPILFPRP
- shrunken log2 fold change: -0.395

Sequence: RRIRMRPPRLPRPRPRPVYEPRP
- shrunken log2 fold change: 0.352

Sequence: RRIRLRPPRLPRPRPRPCYHPRP
- shrunken log2 fold change: -0.569

Sequence: RRIRNRPPRLPRPRPRPPPHPRP
- shrunken log2 fold change: 0.794

Sequence: RRIRTRPPRLPRPRPRPSSDPRP
- shrunken log2 fold change: 1.82

Sequence: RRIRTRPPRLPRPRPRPYRVPRP
- shrunken log2 fold change: 0.0325

Sequence: RRIRYRPPRLPRPRPRPCHCPRP
- shrunken log2 fold change: -0.0269

Sequence: RRIRARPPRLPRPRPRPVKHPRP
- shrunken log2 fold change: 0.0139

Sequence: RRIRCRPPRLPRPRPRPTRKPRP
- shrunken log2 fold change: -0.0442

Sequence: RRIRTRPPRLPRPRPRPSFYPRP
- shrunken log2 fold change: -0.343

Sequence: RRIRVRPPRLPRPRPRPESRPRP
- shrunken log2 fold change: -0.0259

Sequence: RRIRFRPPRLPRPRPRPVDSPRP
- shrunken log2 fold change: 0.0218

Sequence: RRIRKRPPRLPRPRPRPQRVPRP
- shrunken log2 fold change: 0.146

Sequence: RRIRSRPPRLPRPRPRPDAKPRP
- shrunken log2 fold change: 0.0687

Sequence: RRIRARPPRLPRPRPRPAQKPRP
- shrunken log2 fold change: 0.0505
